The chains are these.
B1: antibody 5 (antibody, V domains shown)
VH: QVTLKESGPGILQPSQTLSLTCSFSGFSLSTFGMGVGWIRQPSGKGLEWLAHIWWDDEKYYNSALKSRLTISKATSKNQAFLKIANVDTADTATYYCARISNYGSNYWYFNVWGTGTTVTVSS
VL: QVVLTQSPALMSASPGEKVTMTCSAGSSVSCMYWYQQKPGSSPRVLIYDTSNLASGVPARFTGSGSGTSYSLTISRMEAEDAASYYCQQWNSYPLTFGAGTKLELK
notes: mouse IgG, kappa light chain; also called clone #5; purified antibody 5
B2: antibody 42 (antibody, V domains shown)
VH: B1 VH with F24L, M34R, S63P, A74D, A80V, K83R, S101Q, N111D
VL: LIVLTQSPAIMSASPGEKVTMTCGATSRISYMFWYQQKPGSSPRVLIYDTSNLASGVPVRFSGSGSGTSYSLTISRVEAEDVATYYCQQWNSYPLTFGAGTKLELK
notes: mouse IgG, kappa light chain; also called clone #42; purified antibody 42
B3: antibody 44 (antibody, V domains shown)
VH: B1 VH with G44E, E58D, S63P, A74D, A80I, A85T, D91E, A98S, S101G, N111D
VL: QIVLTQSPAVMSASPGEKVTMTCTASSSVYYMYWYQQTPGSSPRLLIYDTSNLASGVPVRFSGSGSGTSYSLTISRMEAEDAATYYCQQWNTYPLTFGAGTKLELK
notes: mouse IgG, kappa light chain; also called clone #44; purified antibody 44
B4: antibody 43 (antibody, V domains shown)
VH: B1 VH with T3A, P42S, H52N, E58D, S63P, A74D, T75A, S101G, N111D
VL: B2 VL with L1Q, K18R, G24S, T26N, F33Y, V45L, V77M, V82A, Y86N, N91S
notes: mouse IgG, kappa light chain; also called clone #43; purified antibody 43
B5: antibody 22 (antibody, V domains shown)
VH: B1 VH with A80V
VL: B1 VL with C31Y, S84T
notes: mouse IgG, kappa light chain; also called clone #22; purified antibody 22
B6: antibody 48 (antibody, V domains shown)
VH: QVQLQQSGTELVRPGTSVKVSCKASGYAFTNYLIEWVKQRPGQGLEWIGVINPGSGFTKYNEKFKGKATLTADKSSSTVYMHLSSLTSEDSAVYFCARGLYRAMDYWGQGTSVTVSS
VL: DIQMTQSPASQSASLGESVTITCLASQTIATWLAWYQQKPGKSPQLLIYGATTLADGVPSRFSGGGSGTKFSFKISSLQAEDFVSYYCQQLYSTPYTFGGGTKLEIK
notes: mouse IgG, kappa light chain; also called clone #48; purified antibody 48
B7: antibody 50 (antibody, V domains shown)
VH: B6 VH with T9A, T16A, T30S, V79A, H82Q
VL: B6 VL with A30G, G50A, T52A, T53S, S85N, L91I
notes: mouse IgG, kappa light chain; also called clone #50; purified antibody 50
B8: antibody 16 (antibody, V domains shown)
VH: QVTLKESGPGILQPSQTLSLTCSFSGFSLSTFALGVGWIRQPSGRGLEWLAHIWWDDDKYYNPALKSRLTISKDTSKNHVFLKIANVDTADTATYYCARITTYYYGMDYWGQGTSVTVSS
VL: DIVLSQSPATLSVTPGDSVSLFCRASQSIGNHLHWYQQESHASPRLLIKYASQSISGIPSRFSGSGSGTDFTLSINSVETEDFGMYFCQQSYNWPLTFGAGTKLELK
notes: mouse IgG, kappa light chain; also called clone #16; purified antibody 16

Numbering of substitutions follows the chain as printed.

One assay deals with T1, hiR2-FL-P532A-T7 (human, UniProt Q6PJF5 1-856).
T1 sequence: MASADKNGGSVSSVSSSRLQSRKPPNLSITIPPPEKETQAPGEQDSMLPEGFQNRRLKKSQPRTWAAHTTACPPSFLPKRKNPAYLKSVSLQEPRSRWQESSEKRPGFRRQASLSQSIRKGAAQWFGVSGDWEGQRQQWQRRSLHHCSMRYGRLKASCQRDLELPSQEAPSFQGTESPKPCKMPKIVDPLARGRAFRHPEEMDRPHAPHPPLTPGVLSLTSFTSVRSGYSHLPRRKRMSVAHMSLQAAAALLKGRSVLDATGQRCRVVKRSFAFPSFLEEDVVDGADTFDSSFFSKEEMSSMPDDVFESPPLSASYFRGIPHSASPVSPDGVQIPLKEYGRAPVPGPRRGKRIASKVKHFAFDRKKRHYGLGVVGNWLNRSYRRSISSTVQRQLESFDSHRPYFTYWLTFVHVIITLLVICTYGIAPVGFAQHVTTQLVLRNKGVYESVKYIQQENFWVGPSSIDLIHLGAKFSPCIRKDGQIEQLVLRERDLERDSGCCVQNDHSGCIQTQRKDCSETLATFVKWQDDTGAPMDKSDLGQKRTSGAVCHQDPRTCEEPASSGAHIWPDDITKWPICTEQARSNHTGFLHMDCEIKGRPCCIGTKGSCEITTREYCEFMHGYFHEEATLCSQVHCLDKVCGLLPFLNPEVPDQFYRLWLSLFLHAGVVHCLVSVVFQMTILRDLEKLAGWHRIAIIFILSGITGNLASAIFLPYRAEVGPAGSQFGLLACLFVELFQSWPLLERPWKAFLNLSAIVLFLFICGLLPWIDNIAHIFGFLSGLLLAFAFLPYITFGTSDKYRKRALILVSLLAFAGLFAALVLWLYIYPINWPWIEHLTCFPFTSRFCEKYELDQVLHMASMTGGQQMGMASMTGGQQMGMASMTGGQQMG
Kind of assay: FACS, MEF-DKO cells, 3 µg/ml. A general note: A flow cytometer gives signals particle by particle.
For B1, the “loss of binding vs wild type” value is not below 60%. Consider B2, for which the “loss of binding vs wild type” value was not below 60%. The same measure, in the same setting: with B3 the figure was not below 60%; with B4, not below 60%; with B5, not below 30%.

The target of a further assay is T2, hiR2-FL-A560S-T7 (human, UniProt Q6PJF5 1-856).
T2 sequence: T1 sequence with A532P, A560S
Kind of assay: FACS, MEF-DKO cells, 3 µg/ml.
Take B2: the “loss of binding vs wild type” value is not below 30%.

On to B6, for which the “loss of binding vs wild type” value is not below 30%. Same read-out and setting: with B7 the figure was not below 30%.

The target of another assay is T3, hiR1-FL-WT-T7 (human, UniProt Q96CC6 1-855).
T3 construct: on MEF-DKO cells
T3 sequence: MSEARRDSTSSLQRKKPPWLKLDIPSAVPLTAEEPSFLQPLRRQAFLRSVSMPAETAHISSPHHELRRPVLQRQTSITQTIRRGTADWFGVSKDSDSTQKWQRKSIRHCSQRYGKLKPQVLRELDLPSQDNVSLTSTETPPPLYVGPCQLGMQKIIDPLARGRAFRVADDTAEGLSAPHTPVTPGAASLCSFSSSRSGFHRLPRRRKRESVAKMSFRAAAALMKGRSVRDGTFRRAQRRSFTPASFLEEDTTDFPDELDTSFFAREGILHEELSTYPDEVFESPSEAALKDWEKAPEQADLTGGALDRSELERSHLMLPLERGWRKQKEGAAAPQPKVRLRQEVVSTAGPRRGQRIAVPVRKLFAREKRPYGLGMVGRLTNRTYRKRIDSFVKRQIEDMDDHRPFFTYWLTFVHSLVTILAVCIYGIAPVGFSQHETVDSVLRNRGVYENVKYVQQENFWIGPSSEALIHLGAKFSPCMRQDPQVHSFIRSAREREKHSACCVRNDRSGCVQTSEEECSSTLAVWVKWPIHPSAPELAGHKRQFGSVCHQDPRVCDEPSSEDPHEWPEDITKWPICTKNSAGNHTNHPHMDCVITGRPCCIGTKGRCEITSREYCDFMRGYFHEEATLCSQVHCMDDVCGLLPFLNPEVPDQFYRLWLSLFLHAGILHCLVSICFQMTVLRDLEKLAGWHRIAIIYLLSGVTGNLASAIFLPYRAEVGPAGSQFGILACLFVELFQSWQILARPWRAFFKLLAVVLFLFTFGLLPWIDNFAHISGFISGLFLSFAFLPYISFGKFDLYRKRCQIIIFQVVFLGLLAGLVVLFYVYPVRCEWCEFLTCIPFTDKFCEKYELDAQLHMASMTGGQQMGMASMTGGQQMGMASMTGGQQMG
Kind of assay: FACS on MEF-DKO cells.
Turning to B8, the binding result is given as “no binding (tested: 3 µg/ml)”.

With B1, the binding result is listed as “no binding (tested: 3 µg/ml)”. Regarding B5, the binding result is “no binding (tested: 3 µg/ml)”.

The record behind these values is patent publication US20240287172A1 (SCIRHOM, published 2024).
